Measurements as given in paper PMC3946434.
Read-outs that look alike come from different tables or passages of the source.

Assays:
Assay in all cases: AUC
[1] = target: HIV-1 capsid C-terminal domain construct CA144-231 (HIV-1) (UniProt P12493)
[2] = target: HIV-1 capsid C-terminal domain construct CA146-231 (HIV-1) (UniProt P12493)
[3] = target: HIV-1 capsid C-terminal domain construct CA146-231 (HIV-1) (UniProt P12493); remark: listed apart in the source
[4] = target: wild-type, full length HIV-1 capsid protein (CAFL, residues 1-231) (HIV-1) (UniProt P12493)

With “HIV-1 capsid C-terminal domain construct CA144-231 (from UniProt P12493 276-363) (domain or fragment)” the Kd [1] was 16 µM.
“HIV-1 capsid C-terminal domain construct CA146-231 (from UniProt P12493 278-363) (domain or fragment)” showed a Kd [2] of 23 µM and a Kd [3] of 24 µM.
In the case of “wild-type, full length HIV-1 capsid protein (CAFL, residues 1-231) (from UniProt P12493) (natural protein)”, the Kd [4] is reported as 20 µM.
